According to patent publication US20210395381A1 (OSSIANIX, published 2021):
Residue numbers refer to the chain shown, from its start.

B1: Clone 8.76 (VNAR)
VNAR: ARVDQTPQTITKETGESLTINCVLRDSNCALPSTYWYRKKSGSTNEESISKGGRYVETVNSGSKSFSLRINDLTVEDSGTYRCKVQEELSSILRGCNYRKHDVYGDGTAVTVNA
notes: VNAR on phage; Clone 8 framework
B2: Clone 8.112 (VNAR)
VNAR: B1 VNAR with Q86I, E87A, E88Q, I92V, L93Y, R94K
notes: as for B1
B3: Clone 8.104 (VNAR)
VNAR: B1 VNAR with Q86I, E87A, E88Q, I92R, L93E, R94L
notes: VNAR on phage; Clone 8 framework; same CDR3 as 8.133
B4: Clone 8.110 (VNAR)
VNAR: B1 VNAR with Q86I, E87A, E88Q, S90K, S91W, I92G
notes: as for B1
B5: Clone 8.100 (VNAR)
VNAR: B1 VNAR with Q86P, E87H, E88M
notes: as for B1
B6: Clone 8.117 (VNAR)
VNAR: B1 VNAR with Q86I, E87A, E88Q, R94A, G95L, N97M
notes: as for B1
B7: Clone 8.101 (VNAR)
VNAR: B1 VNAR with Q86I, E87A, E88Q, S90H, S91T, I92H
notes: as for B1
B8: Clone 8.77 (VNAR)
VNAR: B1 VNAR with Q86I, E87A, E88Q, N97H, Y98L, R99W
notes: as for B1
B9: Clone 8.127 (VNAR)
VNAR: B1 VNAR with Q86I, E87A, E88K, L89P, S90N
notes: as for B1
B10: Clone 8.95 (VNAR)
VNAR: B1 VNAR with Q86I, E87A, E88Q, R94L, G95K, N97E
notes: as for B1
B11: Clone 8.129 (VNAR)
VNAR: B1 VNAR with Q86I, E87A, E88Q, Y98Q, R99P
notes: as for B1
B12: Clone 8.81 (VNAR)
VNAR: B1 VNAR with Q86I, E87A, E88Q, I92A, L93P, R94D
notes: as for B1
B13: Clone 8.89 (VNAR)
VNAR: B1 VNAR with Q86I, E87A, E88Q, R94F, N97D
notes: as for B1
B14: Clone 8.122 (VNAR)
VNAR: B1 VNAR with Q86I, E87A, E88Q, K100A, H101S
notes: as for B1
B15: Clone 8.92 (VNAR)
VNAR: B1 VNAR with Q86I, E87A, E88Q, S90T, S91Q, I92W
notes: as for B1
B16: Clone 8.90 (VNAR)
VNAR: B1 VNAR with Q86I, E87A, E88Q, R99L, K100Y, H101I
notes: as for B1
B17: Clone 8.88 (VNAR)
VNAR: B1 VNAR with Q86I, E87A, E88Q, R94F, N97A
notes: as for B1
B18: Clone 8.87 (VNAR)
VNAR: B1 VNAR with Q86I, E87A, E88Q, L89F, R94C, G95S, N97R
notes: as for B1
B19: Clone 8.107 (VNAR)
VNAR: B1 VNAR with Q86I, E87A, E88Q, R94F, R99F, H101N
notes: as for B1
B20: Clone 8.113 (VNAR)
VNAR: B1 VNAR with Q86I, E87A, E88Q, I92Y, L93R, R94P
notes: VNAR on phage; Clone 8 framework; same CDR3 as 8.120
B21: Clone 8.78 (VNAR)
VNAR: B1 VNAR with Q86I, E87A, E88Q, I92V, L93V, R94I, R99S
notes: as for B1
B22: Clone 8.83 (VNAR)
VNAR: B1 VNAR with Q86I, E87A, E88Q, L93R, R94A
notes: as for B1
B23: Clone 8.111 (VNAR)
VNAR: B1 VNAR with Q86I, E87A, E88Q, R99D, K100V, H101N
notes: as for B1
B24: Clone 8.84 (VNAR)
VNAR: B1 VNAR with Q86I, E87A, E88W, L89Q
notes: as for B1
B25: Clone 8.114 (VNAR)
VNAR: B1 VNAR with Q86I, E87A, E88Q, L89P, R99G, H101L
notes: as for B1
B26: Clone 8.120 (VNAR)
VNAR: B1 VNAR with Q86I, E87A, E88Q, I92Y, L93R, R94P
notes: VNAR on phage; Clone 8 framework; same CDR3 as 8.113
B27: Clone 8.126 (VNAR)
VNAR: B1 VNAR with Q86I, E87A, E88Q, L89Q, S90D, S91Q, I92D
notes: as for B1
B28: Clone 8.103 (VNAR)
VNAR: B1 VNAR with Q86I, E87A, E88Q, N97K, Y98Q, R99F, K100E, H101Y
notes: as for B1
B29: Clone 8.79 (VNAR)
VNAR: B1 VNAR with Q86M, E87N, E88Q, S90D, S91H, I92F
notes: as for B1
B30: Clone 8.80 (VNAR)
VNAR: B1 VNAR with Q86I, E87A, E88Q, S90P, S91H, I92D
notes: as for B1
B31: Clone 8.108 (VNAR)
VNAR: B1 VNAR with Q86I, E87A, E88Q, R99K, K100N, H101V
notes: as for B1
B32: Clone 8.121 (VNAR)
VNAR: B1 VNAR with Q86I, E87A, E88T, S90G
notes: as for B1
B33: Clone 8.82 (VNAR)
VNAR: B1 VNAR with Q86I, E87A, E88Q, N97V, R99P
notes: as for B1
B34: Clone 8.116 (VNAR)
VNAR: B1 VNAR with Q86I, E87A, E88Q, S90N, S91H, I92Y
notes: as for B1
B35: Clone 8.99 (VNAR)
VNAR: B1 VNAR with Q86L, E87F, E88D
notes: as for B1
B36: Clone 8.125 (VNAR)
VNAR: B1 VNAR with Q86I, E87A, E88Q, I92Y, L93E, R94T
notes: as for B1
B37: Clone 8.124 (VNAR)
VNAR: B1 VNAR with Q86I, E87A, E88Q, I92V, L93K, R94D
notes: as for B1
B38: Clone 8.86 (VNAR)
VNAR: B1 VNAR with Q86I, E87A, E88Q, R94V, G95N, N97F
notes: as for B1
B39: Clone 8.94 (VNAR)
VNAR: B1 VNAR with Q86I, E87A, E88D, L89V, S90G
notes: as for B1
B40: Clone 8.119 (VNAR)
VNAR: B1 VNAR with Q86I, E87A, E88Q, I92V, L93F, R94I
notes: as for B1
B41: Clone 8.109 (VNAR)
VNAR: B1 VNAR with Q86I, E87A, E88Q, R99T, K100L, H101Y
notes: as for B1
B42: Clone 8.128 (VNAR)
VNAR: B1 VNAR with Q86I, E87A, E88Q, S90I, S91K, I92N
notes: as for B1
B43: Clone 8.91 (VNAR)
VNAR: B1 VNAR with Q86I, E87A, E88Q, I92R, L93K, R94G
notes: as for B1
B44: Clone 8.102 (VNAR)
VNAR: B1 VNAR with Q86I, E87A, E88Q, N97A, Y98G, R99V
notes: as for B1
B45: Clone 8.105 (VNAR)
VNAR: B1 VNAR with Q86V, E87A, E88L, L89Q, S90E
notes: as for B1
B46: Clone 8.98 (VNAR)
VNAR: B1 VNAR with Q86L, E88K
notes: as for B1
B47: Clone 8.115 (VNAR)
VNAR: B1 VNAR with Q86I, E87A, E88L, L89H, S90R
notes: as for B1
B48: Clone 8.96 (VNAR)
VNAR: B1 VNAR with Q86I, E87A, E88Q, I92M, L93Y, R94K
notes: as for B1
B49: Clone 8.106 (VNAR)
VNAR: B1 VNAR with Q86V, E87A, E88Q, I92H, L93Y, R94D
notes: as for B1
B50: Clone 8.85 (VNAR)
VNAR: B1 VNAR with Q86I, E87A, E88Q, S90R, S91K, I92K
notes: as for B1
B51: Clone 8.93 (VNAR)
VNAR: B1 VNAR with Q86I, E87A, E88Q, L89Q
notes: as for B1
B52: Clone 8.123 (VNAR)
VNAR: B1 VNAR with Q86I, E87A, E88Q, L93M, R99I, K100M, H101R
notes: as for B1
B53: Clone 8.118 (VNAR)
VNAR: B1 VNAR with Q86I, E87A, E88Q, I92R, L93A, R94M
notes: as for B1

Target: T1, recombinant human TfR-1 (human, UniProt P02786 89-760)
T1 construct: Recombinant protein coated at 1 ug/ml in the phage ELISA; also called hTfR1; human transferrin receptor-1
Test: phage ELISA

T1 sequence (P02786 89-760 limits assumed): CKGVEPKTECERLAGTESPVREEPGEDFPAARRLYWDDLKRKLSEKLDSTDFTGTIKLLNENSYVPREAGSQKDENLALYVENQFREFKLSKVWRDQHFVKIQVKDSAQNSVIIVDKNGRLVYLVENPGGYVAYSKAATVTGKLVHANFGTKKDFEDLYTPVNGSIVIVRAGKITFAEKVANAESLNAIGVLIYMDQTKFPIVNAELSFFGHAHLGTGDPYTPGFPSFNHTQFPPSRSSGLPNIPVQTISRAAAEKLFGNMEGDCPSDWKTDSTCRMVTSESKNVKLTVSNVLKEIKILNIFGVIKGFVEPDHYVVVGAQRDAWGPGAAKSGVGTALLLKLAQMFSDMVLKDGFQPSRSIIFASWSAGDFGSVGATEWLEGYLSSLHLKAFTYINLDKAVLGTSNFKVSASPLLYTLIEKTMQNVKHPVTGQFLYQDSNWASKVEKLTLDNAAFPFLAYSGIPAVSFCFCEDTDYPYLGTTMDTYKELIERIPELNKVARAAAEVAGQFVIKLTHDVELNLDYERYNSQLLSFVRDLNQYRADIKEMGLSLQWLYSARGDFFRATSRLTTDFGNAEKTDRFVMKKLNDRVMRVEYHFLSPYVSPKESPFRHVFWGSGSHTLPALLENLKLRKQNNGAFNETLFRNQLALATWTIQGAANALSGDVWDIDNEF

Binder	A450 [A450]
B1	0.05
B2	0.05
B3	0.05
B4	0.055
B5	0.048
B6	0.056
B7	0.048
B8	0.055
B9	0.047
B10	0.049
B11	0.047
B12	0.065
B13	0.048
B14	0.047
B15	0.051
B16	0.054
B17	0.05
B18	0.07
B19	0.048
B20	0.051
B21	0.049
B22	0.046
B23	0.056
B24	0.058
B25	0.058
B26	0.048
B27	0.05

Binder	A450 [A450]
B28	0.05
B29	0.061
B30	0.059
B31	0.044
B32	0.049
B33	0.048
B34	0.066
B35	0.059
B36	0.05
B37	0.049
B38	0.053
B39	0.06
B40	0.045
B41	0.055
B42	0.051
B43	0.071
B44	0.049
B45	0.047
B46	0.055
B47	0.047
B48	0.051
B49	0.054
B50	0.059
B51	0.05
B52	0.048
B53	0.051

Target: T2, recombinant mouse TfR-1 (mouse, UniProt Q62351 89-763)
T2 construct: Recombinant protein coated at 1 ug/ml in the phage ELISA; also called mTfR1; mouse transferrin receptor-1
Test: phage ELISA

T2 sequence (Q62351 89-763 limits assumed): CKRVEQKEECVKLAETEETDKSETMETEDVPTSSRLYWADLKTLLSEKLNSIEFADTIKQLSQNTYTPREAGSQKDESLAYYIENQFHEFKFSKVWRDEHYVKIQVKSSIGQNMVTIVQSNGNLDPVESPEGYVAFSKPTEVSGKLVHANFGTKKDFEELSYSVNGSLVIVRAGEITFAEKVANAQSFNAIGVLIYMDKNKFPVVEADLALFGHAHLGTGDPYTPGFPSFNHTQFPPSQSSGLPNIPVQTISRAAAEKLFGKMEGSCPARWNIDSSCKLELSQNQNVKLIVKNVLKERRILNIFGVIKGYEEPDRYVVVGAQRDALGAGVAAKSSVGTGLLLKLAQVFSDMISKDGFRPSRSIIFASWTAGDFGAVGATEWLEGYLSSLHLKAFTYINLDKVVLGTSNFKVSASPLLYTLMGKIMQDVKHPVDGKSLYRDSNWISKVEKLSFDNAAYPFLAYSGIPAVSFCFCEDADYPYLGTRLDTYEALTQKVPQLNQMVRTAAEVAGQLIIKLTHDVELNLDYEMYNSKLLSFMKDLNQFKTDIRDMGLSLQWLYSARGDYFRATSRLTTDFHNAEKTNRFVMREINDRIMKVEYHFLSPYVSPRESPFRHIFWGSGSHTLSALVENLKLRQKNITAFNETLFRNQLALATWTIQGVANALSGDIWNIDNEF

Binder	A450 [A450]
B1	0.059
B2	0.05
B3	0.052
B4	0.05
B5	0.053
B6	0.049
B7	0.052
B8	0.058
B9	0.047
B10	0.054
B11	0.047
B12	0.057
B13	0.055
B14	0.048
B15	0.055
B16	0.055
B17	0.055
B18	0.055
B19	0.051
B20	0.05
B21	0.058
B22	0.057
B23	0.05
B24	0.057
B25	0.05
B26	0.049
B27	0.048

Binder	A450 [A450]
B28	0.052
B29	0.058
B30	0.057
B31	0.051
B32	0.049
B33	0.057
B34	0.049
B35	0.053
B36	0.048
B37	0.048
B38	0.056
B39	0.054
B40	0.049
B41	0.051
B42	0.047
B43	0.055
B44	0.052
B45	0.051
B46	0.053
B47	0.049
B48	0.054
B49	0.051
B50	0.056
B51	0.055
B52	0.048
B53	0.049
